For orientation: Kd means the equilibrium constant for the complex coming apart. A lower Kd goes with a tighter complex.

Consider 1 molecule from paper PMC2692298 (Science signaling, 2008).

The experiment addresses stromal cell derived factor-1 (SDF-1, also known as CXCL12), wild type (UniProt P48061 22-93).

For the molecule GSMEGISIYTSDNYTEEMGSGDYDSMKEPAFREENANFNK (sulfotyrosine at positions 7, 12 and 21) [CXCR4 N-terminal peptide p38-sY3 (sulfotyrosine at positions 7, 12 and 21)], the Kd is 200 ± 200 nM and the “fold tighter binding than the unsulfated peptide p38” value is about 20 fold.
